Target: VLDLR fused to monomeric GFP (VLDLR_mGFP) (mouse)
Test: FRET or BRET; time-resolved fluorescence anisotropy imaging (TR-FAIM, homo-FRET) of mGFP-tagged proteins in living HEK293 cells, rFRET from global fit, Imaging Medium; basal state, and before and after 1 uM AP20187, FL-Reelin or R3-6 (up to 90 nM)

rFRET: 0.0858
Substance: VLDLR fused to monomeric GFP (VLDLR_mGFP) (receptor)
